Assay results taken from US20210163945, “APTAMERS FOR TARGETING COAGULATION FACTOR XIII AND USES THEREOF” (Chang Gung University, published 2021).

Tests used:
[1] = biological target: T1, Coagulation factor XIII (FXIII) (UniProt P00488;P05160 P00488:2-732,P05160:21-661); test: dot blot, binds under native and denatured conditions; PBS/Tween 20, BSA block; details: chain copies: 2; label: FAM or biotin
T1 sequence 1: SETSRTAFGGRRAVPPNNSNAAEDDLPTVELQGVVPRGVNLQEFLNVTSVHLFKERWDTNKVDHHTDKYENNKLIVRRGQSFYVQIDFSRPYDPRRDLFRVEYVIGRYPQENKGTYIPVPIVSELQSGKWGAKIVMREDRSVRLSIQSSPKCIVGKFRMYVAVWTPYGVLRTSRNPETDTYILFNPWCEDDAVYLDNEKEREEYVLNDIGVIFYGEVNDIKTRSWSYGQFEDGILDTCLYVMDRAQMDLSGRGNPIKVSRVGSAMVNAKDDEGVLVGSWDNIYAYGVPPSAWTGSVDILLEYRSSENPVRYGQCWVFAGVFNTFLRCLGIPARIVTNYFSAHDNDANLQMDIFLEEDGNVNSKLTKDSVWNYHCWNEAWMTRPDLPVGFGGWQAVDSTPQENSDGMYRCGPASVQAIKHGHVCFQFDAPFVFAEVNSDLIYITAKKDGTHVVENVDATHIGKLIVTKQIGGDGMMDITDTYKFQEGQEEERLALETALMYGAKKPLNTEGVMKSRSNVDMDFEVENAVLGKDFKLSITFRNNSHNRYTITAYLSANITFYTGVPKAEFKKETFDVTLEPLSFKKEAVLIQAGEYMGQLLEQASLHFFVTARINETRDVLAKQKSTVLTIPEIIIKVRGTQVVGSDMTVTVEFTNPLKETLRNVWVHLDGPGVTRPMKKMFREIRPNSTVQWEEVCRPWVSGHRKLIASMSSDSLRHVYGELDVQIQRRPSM
T1 sequence 2: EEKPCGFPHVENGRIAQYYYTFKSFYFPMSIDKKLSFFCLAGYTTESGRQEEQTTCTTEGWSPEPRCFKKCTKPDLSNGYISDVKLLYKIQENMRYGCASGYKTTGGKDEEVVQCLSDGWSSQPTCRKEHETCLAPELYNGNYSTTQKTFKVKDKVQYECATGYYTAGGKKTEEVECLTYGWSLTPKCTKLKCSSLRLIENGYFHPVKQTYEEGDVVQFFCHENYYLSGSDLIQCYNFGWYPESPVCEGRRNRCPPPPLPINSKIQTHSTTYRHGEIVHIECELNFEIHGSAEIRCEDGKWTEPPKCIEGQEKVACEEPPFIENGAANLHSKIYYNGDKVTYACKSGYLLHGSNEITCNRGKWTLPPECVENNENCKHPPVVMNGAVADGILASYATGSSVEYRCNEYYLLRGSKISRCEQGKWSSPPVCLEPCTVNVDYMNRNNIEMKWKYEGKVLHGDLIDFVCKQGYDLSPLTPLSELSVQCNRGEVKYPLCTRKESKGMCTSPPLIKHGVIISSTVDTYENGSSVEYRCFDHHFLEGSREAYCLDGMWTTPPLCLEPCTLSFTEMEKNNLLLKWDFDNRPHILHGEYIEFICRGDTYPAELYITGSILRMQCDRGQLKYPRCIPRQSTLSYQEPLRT
Protocol: Purified FXIII was blotted on a nitrocellulose (NC) membrane, and air-dried for 1 hr. Then a mixture of BSA, PBS, and Polyoxyethylene(20)sorbitan monolaurate (TWEEN™ 20) was added to the NC membrane and incubated for 1 hr, and following biotin-conjugated aptamers were added to the NC membrane and incubated for another 1 hr. The NC membrane was washed thrice using a washing buffer of PBS and Tween 20, and horseradish peroxidase (HRP)-conjugated streptavidin was added to the NC membrane and incubated for 1 hr. For coloration, a substrate of HRP was added to the NC membrane after washing, and the images of the NC membrane were acquired by a X-ray film processor.

[2] = biological target: Bovine serum albumin (BSA) (Bos taurus, UniProt P02769 P02769:25-607); test: dot blot, no binding under native or denatured condition; details: label: FAM or biotin
Bovine serum albumin (BSA), sequence (P02769 25-607, one chain of several): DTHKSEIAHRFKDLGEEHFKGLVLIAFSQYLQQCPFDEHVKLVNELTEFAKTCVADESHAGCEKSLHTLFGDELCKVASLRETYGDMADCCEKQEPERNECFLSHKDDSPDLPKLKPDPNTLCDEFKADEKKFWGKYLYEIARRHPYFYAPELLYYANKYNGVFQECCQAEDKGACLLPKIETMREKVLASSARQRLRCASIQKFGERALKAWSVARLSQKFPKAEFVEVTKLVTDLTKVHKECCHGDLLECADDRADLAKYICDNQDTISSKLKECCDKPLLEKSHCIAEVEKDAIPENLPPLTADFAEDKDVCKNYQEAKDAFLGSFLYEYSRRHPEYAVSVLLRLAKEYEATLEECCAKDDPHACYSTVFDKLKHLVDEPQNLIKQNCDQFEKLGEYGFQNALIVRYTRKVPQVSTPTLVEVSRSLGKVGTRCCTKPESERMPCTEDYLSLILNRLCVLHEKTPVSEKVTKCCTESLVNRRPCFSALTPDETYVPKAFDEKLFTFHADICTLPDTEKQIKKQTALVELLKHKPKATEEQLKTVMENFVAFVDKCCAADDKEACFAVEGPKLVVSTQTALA

CGCAGCATCATTCGGGTCGGGAAGGGGTGTACGGGGCTGCG (ssDNA) [FAT2]: binds [1]; no binding [2].
